Results: patent US20160376333A1

Columns and labels:
[1] = biological target: Epstein-Barr virus BHRF1 a.a. 1-161 with C-terminal avi-6his tag (Epstein-Barr virus)
[2] = biological target: Epstein-Barr virus BHRF1 a.a. 1-161 with C-terminal avi-6his tag (Epstein-Barr virus); experiment: crystal structure PDB 2WH6 of Bim-BH3 bound to BHRF1; solvent-accessible surface buried in the complex
[3] = biological target: Epstein-Barr virus BHRF1 a.a. 1-161 with C-terminal avi-6his tag (Epstein-Barr virus); remark: listed apart in the source

Sequence of Bim-BH3 (peptide) (O43521 141-166): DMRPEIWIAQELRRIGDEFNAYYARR

**Q.** What does the source list for Bim-BH3 (peptide)?
**A.** buried contact surface on Bim-BH3 [1]: 1100 Å2; Total buried SASA [2]: 2000 Å2; buried contact surface on BHRF1 [3]: 908 Å2
